According to patent publication US20210163624A1:

What was measured:
[1] = target: RMF peptide (…)/HLA-A0201 complex on the cell surface (human); assay: flow cytometry, T2 cells pulsed with WT1 (RMF) peptide 50 ug/ml, control mAb at 1 (ug/ml by paragraph 199); secondary alone (T2-WT1-2AB) prints 18
[2] = target: RMF peptide (…)/HLA-A0201 complex on the cell surface (human); assay: flow cytometry, T2 cells pulsed with WT1 (RMF) peptide 50 ug/ml, control mAb at 10 (ug/ml by paragraph 199); secondary alone (T2-WT1-2AB) prints 18
[3] = target: RMF peptide (…)/HLA-A0201 complex on the cell surface (human); assay: flow cytometry, T2 cells pulsed with WT1 (RMF) peptide 50 ug/ml, control mAb at 0.1 (ug/ml by paragraph 199); secondary alone (T2-WT1-2AB) prints 18
[4] = target: RMF peptide (…)/HLA-A0201 complex on the cell surface (human); assay: flow cytometry, T2 cells pulsed with WT1 (RMF) peptide 50 ug/ml, control mAb at 0.01 (ug/ml by paragraph 199); secondary alone (T2-WT1-2AB) prints 18

## Isotype control human IgG1 (antibody)
[1]
  fluorescence value (FL2-H: PE; statistic not given): 37.9
[2]
  fluorescence value (FL2-H: PE; statistic not given): 31.1
[3]
  fluorescence value (FL2-H: PE; statistic not given): 29.5
[4]
  fluorescence value (FL2-H: PE; statistic not given): 31.8
